The results in this text go back to paper PMC11713712, “PFTAIRE peptide degrading cyclin Y and ameliorating cognitive deficits in mouse models of Alzheimer’s Disease” (Alzheimer's & Dementia, 2025).

On series [1], the source says: Abstract Background Cyclin Y (CCNY) is a member of cyclin protein family inhibiting long‐term synaptic plasticity, which is related to the learning and memory function in neuronal system. Recently, CCNY has been reported to associate with the cognitive deficits in Alzheimer’s disease (AD). […] This peptide is derived from the domain of cyclin‐dependent kinase 14, a kinase degrading CCNY protein, and this domain is essential for the binding to CCNY. Utilizing solid‐phase peptide synthesis, PFTAIRE peptide was produced. […] We intravenously injected PFTAIRE peptide to AD mouse models and performed behavior tests.

Series [2] addresses T1, CCNY protein (Homo sapiens, UniProt Q8ND76). Kind of series: CCNY protein level. From the text: (§1) Utilizing solid‐phase peptide synthesis, PFTAIRE peptide was produced.
The target of series [3] is T1, CCNY protein. Kind of series: Binding of PFTAIRE peptide to CCNY protein in in vitro studies.
Source text: as §1

The subject of a further series is AD mouse models. Kind of series: Behavior tests in AD mouse models after intravenous injection. The series is classed as in vivo. Particulars: intravenously injected.
Source text: as §1

T1 sequence (Q8ND76 whole entry, species assumed): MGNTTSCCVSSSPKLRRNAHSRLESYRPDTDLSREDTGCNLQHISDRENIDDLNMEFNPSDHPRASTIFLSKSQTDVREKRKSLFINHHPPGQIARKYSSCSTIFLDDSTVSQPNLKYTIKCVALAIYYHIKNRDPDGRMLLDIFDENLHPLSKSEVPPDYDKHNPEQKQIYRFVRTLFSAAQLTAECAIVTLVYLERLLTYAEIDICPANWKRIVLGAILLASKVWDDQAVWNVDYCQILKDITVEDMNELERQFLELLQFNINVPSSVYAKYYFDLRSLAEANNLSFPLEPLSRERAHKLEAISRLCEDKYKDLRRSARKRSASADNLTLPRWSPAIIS

In the case of “PFTAIRE peptide: Peptide derived from the domain of cyclin‐dependent kinase 14 essential for binding to CCNY; produced by solid‐phase peptide synthesis”, the plasma stability result in series [1] was “confirmed the plasma and liver microsomal stability”. In series [1] (liver microsomes), the liver microsomal stability result is “confirmed the plasma and liver microsomal stability”. For the same substance, the CCNY protein level entry with CCNY protein [2] is given as “diminish CCNY protein level”. Moreover, the “binding to CCNY protein” value in the series with CCNY protein [3] was “binds to CCNY protein”. For the same substance, the “memory impairments in behavior tests” value in the series on AD mouse models is recorded as “prevents memory impairments”.
